± gives the standard deviation of the averaged measurements.
Key:
Saccharomyces cerevisiae [1] = test: protein stability index of tFT-peptide fusion in wild type (PSI (0-1 scale)); higher = more stable (slower turnover); conditions: genetic background: wild type
Procedure: (§1)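 MPS profiling in S. cerevisiae of two library types built from selected 12-aa C-degron peptides (IN1, IN2, LN1, LN3, VN2, R1-R5, W1-W3, Atg1 and Rpa12 C-termini): saturation mutagenesis libraries and C-terminal +1 capping libraries (13 aa). Each peptide is fused to the C-terminus of a sfGFP-mCherry timer, after a GGGS linker. Cells are FACS-sorted into 8 mCherry/sfGFP bins and sequenced. PSI runs from 0 (unstable) to 1 (stable), measured once in wild type and in the das1Δ or doa10Δ background.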

Saccharomyces cerevisiae [2] = test: protein stability index of tFT-peptide fusion in deletion strain of DAS1 (PSI (0-1 scale)); higher = more stable (slower turnover)
Procedure: as §1

Saccharomyces cerevisiae [3] = test: protein stability index of tFT-peptide fusion (C-terminal peptide) (PSI (0-1 scale)); higher = more stable (slower turnover); conditions: temperature: 30 C
Procedure: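 MPS profiling in S. cerevisiae of the yeast C-terminome library: the last 12 aa of each annotated ORF are fused to the C-terminus of a sfGFP-mCherry timer, after a GGGS linker. Cells are FACS-sorted into 8 mCherry/sfGFP bins and deep-sequenced. PSI runs from 0 (unstable) to 1 (stable); wild type and das1Δ backgrounds, two technical replicates each.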

[4] = genetic background: das1 deletion
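Throughout, for protein stability index of tFT-peptide fusion in deletion strain of DAS1: PSI is a weighted mean of each variant's read distribution over the sorted stability bins, computed only for variants having over 10 reads in total.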
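Throughout, for protein stability index of tFT-peptide fusion in wild type: PSI derived as read-weighted mean over the 8 sorting bins, only variants exceeding 10 total reads kept, mCherry placed adjacent to the peptide and sfGFP distal.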

Sequence	protein stability index (Saccharomyces cerevisiae [1])	protein stability index (Saccharomyces cerevisiae [2])	protein stability index (Saccharomyces cerevisiae [3]; [4])	protein stability index (Saccharomyces cerevisiae [3]; genetic background: wild type)
VRGAVGGWRLVT	0.184	0.675		
ARFRVGLWRGAS	0.56	0.668		
CTSCGYKFRTNM	0.156	0.731		
VRGAVGGWRLQG	0.153	0.649		
RLIVPLPVQFLN	0.0525	0.607		
PSLAASFWRKVG	0.131	0.688		
CISCGYKFRTNN	0.211	0.725		
PLIQPLPVQFLN	0.0682	0.604		
LVLYLSCVACIN	0.0137	0.0273		
LNILRQKMNHQN	0.121	0.622		
VRGAVGGCRLVG	0.633	0.692		
RLIQPLPSQFLN	0.106	0.613		
RLIQALPVQFLN	0.0525	0.683		
PSDAASFWRVVG	0.187	0.702		
CTSCGYKFPTNN	0.71	0.728		
YTSCGYKFRTNN	0.212	0.691		
RKIQPLPVQFLN	0.0533	0.616		
PSLAASDWRVVG	0.627	0.68		
VRGAVGGWRLLG	0.164	0.658		
CVVYLSCVACIN	0.0137	0.0323		
TKHKKGQKQKIN	0.118	0.639		
VRGAVGGWNLVG	0.198	0.679		
KKHKKGQKQPIN	0.637	0.587		

Sequence	protein stability index (Saccharomyces cerevisiae [1])	protein stability index (Saccharomyces cerevisiae [2])	protein stability index (Saccharomyces cerevisiae [3]; [4])	protein stability index (Saccharomyces cerevisiae [3]; genetic background: wild type)
VRGAVGGWRLVGL	0.665	0.675		
FSMLWTFRYWVN	0.0376	0.346		
LVVMLSCVACIN	0.0128	0.0276		
LKILRQKMNHQR	0.67	0.669		
CTSCGYKFRLNN	0.35	0.701		
LKILRQKMNHQND	0.675	0.724		
PDKRNHLIKCLN	0.169	0.634		
VRGKVGGWRLVG	0.129	0.67		
KKHKKGQMQKIN	0.209	0.626		
PSLVASFWRVVG	0.137	0.686		
FSMRWTFRYWVNK	0.522	0.532		
RLIQPLPRQFLN	0.19	0.596		
PDKRNHLIKLLNP	0.663	0.672		
LVVYLSCVACIQ	0.0107	0.0327		
LKHLRQKMNHQN	0.175	0.712		
RLIQPLPVQFLNQ	0.65	0.673		
CTSCGFKFRTNN	0.486	0.697		
VRGAVGGWRLNG	0.234	0.679		
KKHLKGQKQKIN	0.0828	0.608		
SVVYLSCVACIN	0.0146	0.0314		
SAIEEGISLNKG [TEL2 C-terminal 12 aa]			0.7058 ± 0.0048	0.701 ± 0.012
LVEILDCEIRTL [MIC60 C-terminal 12 aa]			0.6827 ± 0.0058	0.6707 ± 0.0035
FNISDYFSDIHE [ORC5 C-terminal 12 aa]			0.744 ± 0.02	0.7 ± 0.023

Sequence	protein stability index (Saccharomyces cerevisiae [1])	protein stability index (Saccharomyces cerevisiae [2])	protein stability index (Saccharomyces cerevisiae [3]; [4])	protein stability index (Saccharomyces cerevisiae [3]; genetic background: wild type)
KLLIRFILLVNS [YPR130C C-terminal 12 aa]			0.172 ± 0.016	0.111 ± 0.0048
ALDAEKYLTSLE [TRR1 C-terminal 12 aa]			0.707 ± 0.0079	0.695 ± 0.031
LDLVARTATLSN [NUP84 C-terminal 12 aa]			0.695 ± 0.014	0.713 ± 0.026
YKELVKKIESKN [CIT1 C-terminal 12 aa]			0.7257 ± 0.0054	0.7078 ± 0.0025
FGSSRSEWYLAL [YPL114W C-terminal 12 aa]			0.701 ± 0.029	0.709 ± 0.031
NSIISLEALDAI [SMX2 C-terminal 12 aa]			0.72 ± 0.039	0.708 ± 0.022
KFPLSVKKKIRI [YNR075C-A C-terminal 12 aa]			0.6821 ± 0.0027	0.697 ± 0.066
SSTGTPEHDQDT [EUC1 C-terminal 12 aa]			0.69 ± 0.0083	0.682 ± 0.025
GVALAGALAFLI [HOR7 C-terminal 12 aa]			0.68751 ± 0.00021	0.66173 ± 0.00053
ELIEDPRKMLLW [KGD2 C-terminal 12 aa]			0.694 ± 0.014	0.69 ± 0.033
QVYYELGQIPFE [MET18 C-terminal 12 aa]			0.738 ± 0.0075	0.71 ± 0.011
KGKLITKVNNEE [YML131W C-terminal 12 aa]			0.648 ± 0.029	0.628 ± 0.04
QMICPSLLGIRN [YHR130C C-terminal 12 aa]			0.721 ± 0.013	0.6986 ± 0.0069
GNTENGTLKKKH [BSC5 C-terminal 12 aa]			0.685 ± 0.0072	0.667 ± 0.037
SWINLDFNDGDE [MDM12 C-terminal 12 aa]			0.6957 ± 0.004	0.67488 ± 0.00028
LPHFSHLHVHHD [YHR056W-A C-terminal 12 aa]			0.7294 ± 0.0032	0.719 ± 0.032
SDVAKQLAALGY [RPL16A C-terminal 12 aa]			0.698 ± 0.024	0.677 ± 0.012
GSEHSDPFSTFY [DBF20 C-terminal 12 aa]			0.748 ± 0.0093	0.7245 ± 0.0011
GKFKSAVFEHAG [SRV2 C-terminal 12 aa]			0.703 ± 0.026	0.71 ± 0.019
IVPLSELEKTLI [XKS1 C-terminal 12 aa]			0.696 ± 0.016	0.687 ± 0.0097
QSMLDGNSPESV [DCR2 C-terminal 12 aa]			0.6985 ± 0.0053	0.693 ± 0.021
FGDCHLENSHLH [SPO75 C-terminal 12 aa]			0.7041 ± 0.0012	0.719 ± 0.017
CNYYYHPRITFA [RMT2 C-terminal 12 aa]			0.6909 ± 0.0037	0.708 ± 0.039

Sequence	protein stability index (Saccharomyces cerevisiae [1])	protein stability index (Saccharomyces cerevisiae [2])	protein stability index (Saccharomyces cerevisiae [3]; [4])	protein stability index (Saccharomyces cerevisiae [3]; genetic background: wild type)
STATGKLKKRKM [RAD2 C-terminal 12 aa]			0.718 ± 0.023	0.649 ± 0.021
TEFMNFWINVLP [RSC4 C-terminal 12 aa]			0.725 ± 0.028	0.715 ± 0.02
PKGDIEASIAEE [MPH3 C-terminal 12 aa]			0.6877 ± 0.00033	0.677 ± 0.016
ANDWKTYENMKK [SIP18 C-terminal 12 aa]			0.7042 ± 0.0029	0.706 ± 0.041
AATNNLFIFSAL [CDC55 C-terminal 12 aa]			0.732 ± 0.0084	0.713 ± 0.073
RMHRRLPFPTLN [YJR142W C-terminal 12 aa]			0.699 ± 0.025	0.548 ± 0.013
ITSYNFLGVPFK [YLR406C-A C-terminal 12 aa]			0.746 ± 0.018	0.724 ± 0.043
GVEKYWGILSSD [SCW10 C-terminal 12 aa]			0.7123 ± 0.0033	0.716 ± 0.028
SRLKKEFEAAAL [IDP2 C-terminal 12 aa]			0.6762 ± 0.0031	0.678 ± 0.085
RKCRVYVIQDAF [YER084W-A C-terminal 12 aa]			0.6849 ± 0.0056	0.67829 ± 0.00013
VTFLVFANLRLW [YBR223W-A C-terminal 12 aa]			0.566 ± 0.013	0.575 ± 0.027
LKTTPCLTHWYN [YIR030W-A C-terminal 12 aa]			0.699 ± 0.022	0.663 ± 0.033
HFANFKRTIEEK [AMD1 C-terminal 12 aa]			0.729 ± 0.049	0.6925 ± 0.0065
AVERLKLLKDYL [BNA3 C-terminal 12 aa]			0.685 ± 0.013	0.73 ± 0.0074
RRAAIHPYFQES [CDC28 C-terminal 12 aa]			0.729 ± 0.013	0.687 ± 0.015
RTTFRTLSSYGK [YHL041W C-terminal 12 aa]			0.713 ± 0.0099	0.648 ± 0.037
DVERVIRNAGRS [HSL1 C-terminal 12 aa]			0.693 ± 0.0082	0.674 ± 0.0079
PGLRRQHTRNFL [YMR294W-A C-terminal 12 aa]			0.697 ± 0.01	0.737 ± 0.042
SGPSAMTKFGPR [ARP2 C-terminal 12 aa]			0.69 ± 0.032	0.6842 ± 0.0042
VGDLEAGLRRKK [IMG1 C-terminal 12 aa]			0.712 ± 0.0076	0.6655 ± 0.0024
VKKLLEIRSKSS [GTT2 C-terminal 12 aa]			0.681 ± 0.0073	0.369 ± 0.0065

Source: the supplement of paper PMC10724198
